The values below are quoted from earlier work in article PMC7593401.

This series concerns the target C3b (Homo sapiens) (UniProt P01024). Nature of the series: SPR.

Sequence of C3b (Homo sapiens) (P01024 23-667, chain 1 of 2): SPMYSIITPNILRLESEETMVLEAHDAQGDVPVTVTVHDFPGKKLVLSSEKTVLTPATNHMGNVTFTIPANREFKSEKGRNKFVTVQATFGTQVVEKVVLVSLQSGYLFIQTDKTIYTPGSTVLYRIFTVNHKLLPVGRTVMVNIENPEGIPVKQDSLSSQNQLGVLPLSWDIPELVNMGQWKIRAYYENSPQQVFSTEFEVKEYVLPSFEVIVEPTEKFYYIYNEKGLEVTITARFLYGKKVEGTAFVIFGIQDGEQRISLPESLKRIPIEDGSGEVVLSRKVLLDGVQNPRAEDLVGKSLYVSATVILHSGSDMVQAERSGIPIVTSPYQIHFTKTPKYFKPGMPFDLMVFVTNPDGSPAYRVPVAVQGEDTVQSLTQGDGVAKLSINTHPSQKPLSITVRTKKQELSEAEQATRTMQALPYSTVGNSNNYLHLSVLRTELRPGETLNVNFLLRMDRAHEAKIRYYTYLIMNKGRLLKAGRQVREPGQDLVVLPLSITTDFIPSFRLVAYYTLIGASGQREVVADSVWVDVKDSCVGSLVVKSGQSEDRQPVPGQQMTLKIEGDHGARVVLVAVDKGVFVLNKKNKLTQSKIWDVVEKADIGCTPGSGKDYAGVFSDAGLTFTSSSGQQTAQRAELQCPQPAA
Sequence of C3b (Homo sapiens) (P01024 749-1663, chain 2 of 2): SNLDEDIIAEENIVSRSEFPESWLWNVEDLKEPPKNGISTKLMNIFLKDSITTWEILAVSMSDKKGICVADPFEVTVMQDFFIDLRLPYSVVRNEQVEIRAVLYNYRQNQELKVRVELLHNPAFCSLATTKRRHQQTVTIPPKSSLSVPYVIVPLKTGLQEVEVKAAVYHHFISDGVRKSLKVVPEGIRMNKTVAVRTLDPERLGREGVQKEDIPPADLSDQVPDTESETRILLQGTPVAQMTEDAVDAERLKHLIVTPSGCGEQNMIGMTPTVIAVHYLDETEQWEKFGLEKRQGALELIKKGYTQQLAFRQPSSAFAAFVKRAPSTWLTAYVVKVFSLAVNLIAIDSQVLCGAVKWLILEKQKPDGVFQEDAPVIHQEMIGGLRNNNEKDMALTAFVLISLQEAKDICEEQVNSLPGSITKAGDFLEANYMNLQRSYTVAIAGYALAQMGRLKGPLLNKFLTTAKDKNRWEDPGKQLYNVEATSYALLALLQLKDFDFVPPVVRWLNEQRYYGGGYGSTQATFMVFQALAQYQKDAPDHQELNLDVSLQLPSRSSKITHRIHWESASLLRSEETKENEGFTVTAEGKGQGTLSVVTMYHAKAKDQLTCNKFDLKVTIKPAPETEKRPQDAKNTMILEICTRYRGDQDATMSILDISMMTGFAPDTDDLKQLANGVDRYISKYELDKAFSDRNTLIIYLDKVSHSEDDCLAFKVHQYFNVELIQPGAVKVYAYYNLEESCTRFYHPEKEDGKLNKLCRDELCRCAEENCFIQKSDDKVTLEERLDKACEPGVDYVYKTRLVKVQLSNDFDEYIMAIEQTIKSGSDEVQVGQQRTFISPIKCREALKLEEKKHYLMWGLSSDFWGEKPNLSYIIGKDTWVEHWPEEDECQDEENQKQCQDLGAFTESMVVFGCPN
Sequence of FHL-1 (P08603 19-1231): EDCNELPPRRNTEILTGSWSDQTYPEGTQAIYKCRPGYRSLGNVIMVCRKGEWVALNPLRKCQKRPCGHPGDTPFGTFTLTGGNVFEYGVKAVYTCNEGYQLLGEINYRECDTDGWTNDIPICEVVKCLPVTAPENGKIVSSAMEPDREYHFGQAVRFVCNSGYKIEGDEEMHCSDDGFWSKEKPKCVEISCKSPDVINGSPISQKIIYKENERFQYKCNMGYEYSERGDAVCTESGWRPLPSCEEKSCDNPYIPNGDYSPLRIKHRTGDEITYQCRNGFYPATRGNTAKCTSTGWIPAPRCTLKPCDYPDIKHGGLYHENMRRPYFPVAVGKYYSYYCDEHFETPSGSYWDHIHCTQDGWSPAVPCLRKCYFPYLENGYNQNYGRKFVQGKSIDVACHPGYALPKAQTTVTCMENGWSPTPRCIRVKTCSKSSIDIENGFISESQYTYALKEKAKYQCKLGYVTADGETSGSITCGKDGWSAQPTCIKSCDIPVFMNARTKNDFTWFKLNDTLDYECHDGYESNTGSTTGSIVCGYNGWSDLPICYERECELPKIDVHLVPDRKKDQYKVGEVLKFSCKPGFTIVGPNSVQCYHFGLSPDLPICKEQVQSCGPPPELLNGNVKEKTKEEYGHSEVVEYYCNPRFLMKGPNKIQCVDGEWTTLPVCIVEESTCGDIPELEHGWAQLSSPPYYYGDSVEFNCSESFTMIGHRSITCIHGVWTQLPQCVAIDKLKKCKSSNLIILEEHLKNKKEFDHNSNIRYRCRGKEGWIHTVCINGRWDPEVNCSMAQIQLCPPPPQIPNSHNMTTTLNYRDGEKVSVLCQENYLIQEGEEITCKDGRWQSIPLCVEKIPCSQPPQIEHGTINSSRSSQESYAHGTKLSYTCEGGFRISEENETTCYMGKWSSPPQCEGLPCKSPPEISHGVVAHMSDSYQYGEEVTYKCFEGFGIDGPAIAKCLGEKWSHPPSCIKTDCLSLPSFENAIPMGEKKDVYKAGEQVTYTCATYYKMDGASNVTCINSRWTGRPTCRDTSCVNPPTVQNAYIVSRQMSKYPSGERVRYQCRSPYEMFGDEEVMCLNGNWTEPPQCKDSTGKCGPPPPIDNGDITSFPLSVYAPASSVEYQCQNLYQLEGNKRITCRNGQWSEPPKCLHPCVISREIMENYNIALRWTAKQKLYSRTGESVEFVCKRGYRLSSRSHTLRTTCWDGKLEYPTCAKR
Sequence of Factor H (P08603 19-1231): as above

The term Kd denotes the equilibrium constant for the complex coming apart. Take Factor H (from UniProt P08603): the Kd was 600 nM. For FHL-1 (from UniProt P08603), the Kd was 1000 nM.
